This passage reports IC50 results from patent publication US20030175681A1.

The target in the assay is rhCMV (strain 68.1) US28 homolog(s): fractalkine-binding receptor protein expressed on rhCMV-infected rhesus dermal fibroblasts and on rhCMV virions. Description: homologous competition: unlabeled fractalkine displaces 125I-fractalkine from rhCMV-infected rhesus dermal fibroblasts, filter binding.

Chain of fractalkine (P78423 25-100 limits assumed): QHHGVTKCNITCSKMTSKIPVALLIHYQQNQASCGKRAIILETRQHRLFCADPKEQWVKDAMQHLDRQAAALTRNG

As a reminder, the IC50 is the concentration that inhibits the measured activity by half. The low end stands for greater potency in that assay, the high end for weaker potency in that assay. In turn, “fractalkine (from UniProt P78423 25-100) (ligand)” returned an IC50 of 0.044 nM.
